Results taken from patent US10413607B2, “Antibody specifically binding to ErbB3 and use thereof” (ISU ABXIS CO., LTD., priority 2015, dated 2019).
Where a chain is given by its changes, count along the chain named.

B1: 442S1: modified anti-ErbB3 antibody from lead antibody 442P (CDR mutagenesis) (antibody, V domains shown)
VH: EVQLLESGGGLVQPGGSLRLSCAASGFTFSDYDMSWVRQAPGKGLEWVSTIDLDSGSIYYADSVQGRFTISRDNSKNTLYLQMNSLRAEDTAVYYCAKDLHMGPEGPFDYWGQGTLVTVSS
VL: QSVLTQPPSASGTPGQRVTISCSGSSSNIGSNSVSWYQQLPGTAPKLLIYSDNHRPSGVPDRFSGSKSGTSASLAISGLRSEDEADYYCQGWDTSLSGHVFGGGTKLTVLG
modifications: Heavy chain variable region of antibody 442S1; Light chain variable region of antibody 442S1
B2: 451M6: modified anti-ErbB3 antibody from lead antibody 451P (CDR mutagenesis) (antibody, V domains shown)
VH: EVQLLESGGGLVQPGGSLRLSCAASGFTFSHYDMSWVRQAPGKGLEWVSAIYYDSGSIYYADSAKGRFTISRDNSKNTLYLQMNSLRAEDTAVYYCAKDRLFESDSTFDYWGQGTLVTVSS
VL: B1 VL with S26P, S31N, S35T, S51Y, N53S, Q90G, G91S, T94A, S97N, H99Y
modifications: Heavy chain variable region of antibody 451M6; Light chain variable region of antibody 451M6
B3: 451M7: modified anti-ErbB3 antibody from lead antibody 451P (CDR mutagenesis) (antibody, V domains shown)
VH: B2 VH with H31Y
VL: B1 VL with S26P, S31N, S35T, S51Y, N53S, Q90G, G91S, T94A, S97N, H99Y
modifications: Heavy chain variable region of antibody 451M7; Light chain variable region of antibody 451M7
B4: 451M5: modified anti-ErbB3 antibody from lead antibody 451P (CDR mutagenesis) (antibody, V domains shown)
VH: B2 VH with H31D
VL: B1 VL with S26P, S31N, S35T, S51Y, N53S, Q90G, G91S, T94A, S97N, H99Y
modifications: Heavy chain variable region of antibody 451M5; Light chain variable region of antibody 451M5
B5: 442S6: modified anti-ErbB3 antibody from lead antibody 442P (CDR mutagenesis) (antibody, V domains shown)
VH: B1 VH with T50S, D52Y, L53P, I58T, Y59D, L100R, G103W
VL: B1 VL with V34G, S51A, H54W, Q90A, G91A, T94S, H99Y
modifications: Heavy chain variable region of antibody 442S6; Light chain variable region of antibody 442S6

Legend:
ZR-75-30 cells = experiment: Paclitaxel resistance, caspase 3/7 activity in ZR-75-30 breast cancer cells with HRG; format: cell-based; settings: 100 ng/mL HRG, 10 nM Paclitaxel, 25 μg/mL 442S1, about 72 hours; FIG. 10
Experimental: About 1×10^4 ZR-75-30 cells (American Type Culture Collection) were inoculated onto a plate and incubated in RPMI 1640 medium (Invitrogen) including 10% (v/v) FBS at 37° C. under 5% CO2 conditions for about 24 hours. The medium was then exchanged with fresh medium (100 ng/mL HRG added) including 0.1% (v/v) FBS, and further incubation was performed at 37° C. under 5% CO2 conditions for about 24 hours. 10 nM of Paclitaxel (Bristol-Myers Squibb) and 25 μg/mL of antibody 442S1 were added to the cultured cells and incubated at 37° C. under 5% CO2 conditions for about 72 hours. The cultured cells were collected, and the activity of caspase 3/7 as an apoptotic marker was measured using a Caspase 3/7 Substrate Assay (Promega).

[1] = tested on: FaDu human head and neck cancer cells; experiment: Cetuximab resistant FaDu xenograft model; format: in vivo, NOD SCID mice; settings: after Cetuximab failure; 10 mg/kg 442S1, 5 mg/kg Cetuximab, twice a week, 2 weeks; FIG. 12
Experimental: FaDu human head and neck cancer cells (Shanghai Institutes of Biological Sciences) were incubated in EMEM medium (Hyclone) including 10% FBS (Invitrogen), 0.01 mM NEAA (Non-Essential Amino Acid, Hyclone), and 2 mM L-glutamine (Invitrogen). About 5×10^6 FaDu cancer cells were suspended in 100 μl of PBS and then subcutaneously injected into the frank region of the female NOD SCID mice (HFK Bio-Technology Co., Ltd.). Weights of the mice were measured twice a week, and tumor volume was calculated using the equation of “0.5 a×b^2”, where a and b were the long and short diameters of the tumor, respectively. When the tumor volume reached about 165 mm^3 after 8 days from the inoculation of the cancer cells, the mice were randomly selected. […] Tumor volumes were measured twice a week.

[2] = molecular target: T1, recombinant human ErbB3 protein (Homo sapiens, UniProt P21860); experiment: Binding affinity of anti-ErbB3 antibody to human ErbB3 protein (Octet QK384); settings: immobilized human ErbB3; for ka (association constant): binding phase about 900 seconds; for kd (dissociation constant): dissociation phase about 1200 seconds
T1 construct: purchased R&D systems
Experimental: In particular, the binding affinities of the anti-ErbB3 antibodies to the recombinant human ErbB3 protein (R&D systems) and the antigen-antibody interactive dynamics were measured using an Octet® QK384 system (Pall Life Sciences). After activation of carboxyl groups in 20 mM of 1-ethyl-3-(3-dimethylaminopropyl)carbodiimide hydrochloride (EDC) and 40 mM of N-hydroxysulfosuccinimide (sulfo-NHS) solution on an AR2G sensor (ForteBio), 10 μg/mL of human ErbB3 protein solution diluted with 10 mM of sodium acetate (pH 4.0) (ForteBio) was added to immobilize human ErbB3 protein onto the AR2G sensor. The AR2G sensor to which the human ErbB3 protein was immobilized was treated with 1 M of ethanolamine (ForteBio) to inactivate the remaining unreacted carboxyl groups.

[3] = tested on: FaDu head and neck cancer, pancreatic cancer, or lung cancer; experiment: Tumor growth inhibition, FaDu head and neck, pancreatic or lung cancer animal model; format: in vivo
Experimental: The antibody 442S1 was administered into FaDu head and neck cancer, pancreatic cancer, or lung cancer animal model, and the antibodies 442P or 472P antibodies were administered into gastric cancer animal model, in the same manner as described in Examples 3.1 to 3.3.

| Molecule | activity of caspase 3/7 (ZR-75-30 cells) | tumor suppression effect compared with Cetuximab alone [1] | ka (association constant) [2] | kd (dissociation constant) [2] | tumor volume relative to negative control group [3] |
| --- | --- | --- | --- | --- | --- |
| CC(=O)O[C@H]1C(=O)[C@@]2(C)[C@H]([C@H](OC(=O)c3ccccc3)[C@]3(O)C[C@H](OC(=O)[C@H](O)[C@@H](NC(=O)c4ccccc4)c4ccccc4)C(C)=C1C3(C)C)[C@]1(OC(C)=O)CO[C@@H]1C[C@@H]2O [Paclitaxel] | reduced |  |  |  |  |
| B1 |  | significant tumor suppression effect | 522000 M⁻¹ s⁻¹ | 3.94e-07 s⁻¹ | tumor volume was reduced |
| B2 |  |  | 1.2e+06 M⁻¹ s⁻¹ | 4.17e-06 s⁻¹ |  |
| B3 |  |  | 1.35e+06 M⁻¹ s⁻¹ | 6.63e-06 s⁻¹ |  |
| B4 |  |  | 1.52e+06 M⁻¹ s⁻¹ | 3.29e-05 s⁻¹ |  |
| B5 |  |  | 872000 M⁻¹ s⁻¹ | <1e-07 s⁻¹ |  |
